Measurements taken from article PMC7069968, “Cholesteryl α-D-glucoside 6-acyltransferase enhances the adhesion of Helicobacter pylori to gastric epithelium” (Communications Biology, 2020).

Columns and labels:
[1] = tested on: CCCCCCCCCCCCCC(=O)OC[C@H](COP(=O)(O)OCCN)OC(=O)CCCCCCCCCCCCC; assay: purified protein; details: Ca2+ acyl donor; phospholipase A1-type, a1-position acyl chain transferred to CG
[2] = tested on: CC(C)CCC[C@@H](C)[C@H]1CC[C@H]2[C@@H]3CC=C4C[C@@H](O[C@H]5O[C@H](CO)[C@@H](O)[C@H](O)[C@H]5O)CC[C@]4(C)[C@H]3CC[C@]12C; assay: purified protein; details: Ca2+ acyl acceptor; sequential rapid-equilibrium random bi-bi mechanism

## cholesteryl α-D-glucopyranoside 6′-acyltransferase (CGAT) (Helicobacter pylori 26695)
[1]
  Km: 290 µM
[2]
  Km: 26.0 µM
